Reference: patent US20220389082A1 (CSL BEHRING LENGNAU, published 2022)

What was measured:
[1] = biological target: T1, D′D3 albumin fusion protein (D′D3-FP), dimer (human, Covalent homodimer: the two chains are joined by disulfide bridge(s) within the D3 part (paragraph 124 names Cys-1099, Cys-1142, Cys-1222, Cys-1225, Cys-1227 in SEQ ID NO:4 numbering). N-glycosylated, …); experiment: SPR (Biacore T200), D′D3-FP captured on anti-albumin antibody, rVIII-SingleChain as analyte, single cycle kinetics, 25° C.; D′D3-FP dimer preparation
T1 construct: It was expressed in CHO K1 cells with the VWF propeptide, which is cleaved by co-transfected furin; The dimer fraction was isolated by size exclusion chromatography; The description says the dimer is a disulfide-linked homodimer; In the SPR assay it was captured on an anti-albumin antibody; also called dimeric D′D3-FP; rD′D3-FP
T1 sequence (chain, as listed by the source limits assumed, chain 1 of 2): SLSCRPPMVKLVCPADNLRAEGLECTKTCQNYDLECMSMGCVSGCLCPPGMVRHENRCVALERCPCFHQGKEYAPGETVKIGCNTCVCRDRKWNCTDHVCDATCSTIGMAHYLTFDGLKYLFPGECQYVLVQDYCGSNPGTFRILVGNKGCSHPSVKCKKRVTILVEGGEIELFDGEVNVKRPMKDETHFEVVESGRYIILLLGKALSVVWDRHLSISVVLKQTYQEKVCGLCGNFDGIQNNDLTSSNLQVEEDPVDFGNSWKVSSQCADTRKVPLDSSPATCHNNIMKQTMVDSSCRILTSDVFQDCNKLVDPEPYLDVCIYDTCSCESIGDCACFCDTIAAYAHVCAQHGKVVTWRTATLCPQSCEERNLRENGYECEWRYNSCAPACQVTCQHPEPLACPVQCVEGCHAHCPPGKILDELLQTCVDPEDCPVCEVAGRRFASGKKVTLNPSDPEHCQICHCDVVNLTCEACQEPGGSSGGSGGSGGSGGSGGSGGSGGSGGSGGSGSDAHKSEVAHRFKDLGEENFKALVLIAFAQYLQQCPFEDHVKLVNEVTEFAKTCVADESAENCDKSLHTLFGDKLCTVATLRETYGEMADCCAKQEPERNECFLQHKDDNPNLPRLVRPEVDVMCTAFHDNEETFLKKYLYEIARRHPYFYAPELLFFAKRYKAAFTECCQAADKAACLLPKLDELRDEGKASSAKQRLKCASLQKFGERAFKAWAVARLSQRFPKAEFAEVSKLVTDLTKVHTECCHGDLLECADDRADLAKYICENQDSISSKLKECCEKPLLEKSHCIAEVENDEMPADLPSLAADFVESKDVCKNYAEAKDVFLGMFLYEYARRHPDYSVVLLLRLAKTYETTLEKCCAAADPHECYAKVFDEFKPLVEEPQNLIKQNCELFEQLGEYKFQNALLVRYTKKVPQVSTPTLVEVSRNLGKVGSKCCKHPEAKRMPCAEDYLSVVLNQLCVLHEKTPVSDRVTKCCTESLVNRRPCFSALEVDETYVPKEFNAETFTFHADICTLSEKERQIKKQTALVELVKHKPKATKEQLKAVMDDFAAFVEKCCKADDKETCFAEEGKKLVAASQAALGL
T1 sequence (chain, as listed by the source limits assumed, chain 2 of 2): as the sequence (chain, as listed by the source limits assumed, chain 1 of 2) above
Method: (§1) An anti-albumin antibody (MA1-20124, Thermo Scientific) was covalently coupled via its N-terminus to an activated CM 3 chip by NHS (N-Hydroxysuccinimide) and EDC […], both contained in the amine coupling kit (BR1000-50) from GE Healthcare. For immobilization 3 μg/mL of the antibody were diluted in sodium acetate buffer (10 mM, pH 5.0) and the antibody solution was flown over the chip for 7 min. at a flow rate of 10 μL/min. After the immobilization procedure non-coupled dextran filaments were saturated by flowing ethanolamine solution (1 M, pH 8.3) over the chip for 5 min (at a flow rate of 10 μL/min). The aim of saturating the flow cell was to minimize unspecific binding of the analytes to the chip. A reference flow cell was set up by saturating an empty flow cell with ethanolamine by using the same procedure as above.
(§2) Dimeric and monomeric D′D3-FP proteins, respectively, were immobilized to the covalently coupled anti-albumin antibody by a flow of the D′D3-FP proteins (5 μg/mL) over the chip for 3 min (flow rate of 10 μL/min).
(§3) To create binding curves for FVIII, each D′D3-FP protein preparation was diluted in running buffer (HBS-P+: 0.1 M HEPES, 1.5 M NaCl and 0.5% v/v Surfactant P20, pH 7.4; product code BR100671, GE Healthcare) to concentrations of 0.25 nM, 0.5 nM, 1 nM, 3 nM and 4 nM. […]

[2] = biological target: T1, D′D3 albumin fusion protein (D′D3-FP), …; experiment: SPR (Biacore T200), D′D3-FP captured on anti-albumin antibody, rVIII-SingleChain as analyte, single cycle kinetics, 25° C.
Method: as §1, §2, §3

B1: rVIII-SingleChain (single chain Factor VIII molecule, construct dBN(64-53) of WO 2004/067566) (other)
chain: ATRRYYLGAVELSWDYMQSDLGELPVDARFPPRVPKSFPFNTSVVYKKTLFVEFTDHLFNIAKPRPPWMGLLGPTIQAEVYDTVVITLKNMASHPVSLHAVGVSYWKASEGAEYDDQTSQREKEDDKVFPGGSHTYVWQVLKENGPMASDPLCLTYSYLSHVDLVKDLNSGLIGALLVCREGSLAKEKTQTLHKFILLFAVFDEGKSWHSETKNSLMQDRDAASARAWPKMHTVNGYVNRSLPGLIGCHRKSVYWHVIGMGTTPEVHSIFLEGHTFLVRNHRQASLEISPITFLTAQTLLMDLGQFLLFCHISSHQHDGMEAYVKVDSCPEEPQLRMKNNEEAEDYDDDLTDSEMDVVRFDDDNSPSFIQIRSVAKKHPKTWVHYIAAEEEDWDYAPLVLAPDDRSYKSQYLNNGPQRIGRKYKKVRFMAYTDETFKTREAIQHESGILGPLLYGEVGDTLLIIFKNQASRPYNIYPHGITDVRPLYSRRLPKGVKHLKDFPILPGEIFKYKWTVTVEDGPTKSDPRCLTRYYSSFVNMERDLASGLIGPLLICYKESVDQRGNQIMSDKRNVILFSVFDENRSWYLTENIQRFLPNPAGVQLEDPEFQASNIMHSINGYVFDSLQLSVCLHEVAYWYILSIGAQTDFLSVFFSGYTFKHKMVYEDTLTLFPFSGETVFMSMENPGLWILGCHNSDFRNRGMTALLKVSSCDKNTGDYYEDSYEDISAYLLSKNNAIEPRSFSQNSRHPSTRQKQFNATTIPENTTLQSDQEEIDYDDTISVEMKKEDFDIYDEDENQSPRSFQKKTRHYFIAAVERLWDYGMSSSPHVLRNRAQSGSVPQFKKVVFQEFTDGSFTQPLYRGELNEHLGLLGPYIRAEVEDNIMVTFRNQASRPYSFYSSLISYEEDQRQGAEPRKNFVKPNETKTYFWKVQHHMAPTKDEFDCKAWAYFSDVDLEKDVHSGLIGPLLVCHTNTLNPAHGRQVTVQEFALFFTIFDETKSWYFTENMERNCRAPCNIQMEDPTFKENYRFHAINGYIMDTLPGLVMAQDQRIRWYLLSMGSNENIHSIHFSGHVFTVRKKEEYKMALYNLYPGVFETVEMLPSKAGIWRVECLIGEHLHAGMSTLFLVYSNKCQTPLGMASGHIRDFQITASGQYGQWAPKLARLHYSGSINAWSTKEPFSWIKVDLLAPMIIHGIKTQGARQKFSSLYISQFIIMYSLDGKKWQTYRGNSTGTLMVFFGNVDSSGIKHNIFNPPIIARYIRLHPTHYSIRSTLRMELMGCDLNSCSMPLGMESKAISDAQITASSYFTNMFATWSPSKARLHLQGRSNAWRPQVNNPKEWLQVDFQKTMKVTGVTTQGVKSLLTSMYVKEFLISSSQDGHQWTLFFQNGKVKVFQGNQDSFTPVVNSLDPPLLTRYLRIHPQSWVHQIALRMEVLGCEAQDLY
notes: also called FVIII
For B1, the Kd [1] was 0.034 nM, the koff [2] was 0.0015 s⁻¹ and the kon [2] was 4.5e+07 M⁻¹ s⁻¹.
